This note sets out measurements from article PMC5349851, “Combinatorial bZIP dimers display complex DNA-binding specificity landscapes”.

The target of one series is BATF3;CEBPA (human;human, UniProt Q9NR55;P49715 ;, |). The series can be described thus: EMSA-FRET; heterodimer; EMSA-FRET: 50 nM each labeled protein, 10 nM DNA, 50 mM potassium phosphate pH 7.4, 150 mM KCl, 0.1% BSA, 0.1% Tween-20, 5 ng/ul poly(dI-dC), 0.5 mM TCEP; 37 C. The conditions noted are these: protein: recombinant;recombinant; fluorescein or TAMRA; chain copies: 2;2; label: 5' TYE 665; blunt.
Sequence of BATF3;CEBPA (P49715 273-345, one chain of several): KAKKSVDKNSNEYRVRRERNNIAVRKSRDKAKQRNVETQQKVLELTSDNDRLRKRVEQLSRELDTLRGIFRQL

Another series addresses T1, ATF3 (human, UniProt P18847).
T1 sequence: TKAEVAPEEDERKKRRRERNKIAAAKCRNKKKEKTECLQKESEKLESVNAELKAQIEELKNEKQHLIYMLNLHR
The series can be described thus: EMSA-FRET; homodimer; EMSA-FRET: 50 nM each labeled protein, 10 nM DNA, 50 mM potassium phosphate pH 7.4, 150 mM KCl, 0.1% BSA, 0.1% Tween-20, 5 ng/ul poly(dI-dC), 0.5 mM TCEP; 37 C. To be noted: protein: recombinant; fluorescein or TAMRA; chain copies: 2; label: 5' TYE 665; blunt.

A further series addresses T2, BATF3 (human, UniProt Q9NR55).
T2 sequence: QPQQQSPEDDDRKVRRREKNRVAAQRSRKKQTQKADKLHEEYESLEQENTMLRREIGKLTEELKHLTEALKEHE
Described as above. To be noted: protein: recombinant; fluorescein or TAMRA; chain copies: 2; label: 5' TYE 665; blunt.

The target in series [1] is T3, JUN (human, UniProt P05412). The description is as above. To be noted: protein: recombinant; fluorescein or TAMRA; chain copies: 2; label: 5' TYE 665; blunt.
T3 sequence (P05412 243-316): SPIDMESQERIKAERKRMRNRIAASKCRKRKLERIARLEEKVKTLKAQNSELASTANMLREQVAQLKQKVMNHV
The target of series [2] is T4, XBP1 (human, UniProt P17861).
T4 sequence: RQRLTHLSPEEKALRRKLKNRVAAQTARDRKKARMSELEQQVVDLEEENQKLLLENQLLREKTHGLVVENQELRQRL
The series can be described thus: EMSA-FRET; homodimer; comparable to CRE-L; EMSA-FRET: 50 nM each labeled protein, 10 nM DNA, 50 mM potassium phosphate pH 7.4, 150 mM KCl, 0.1% BSA, 0.1% Tween-20, 5 ng/ul poly(dI-dC), 0.5 mM TCEP; 37 C. The conditions noted are these: protein: recombinant; fluorescein or TAMRA; chain copies: 2; label: 5' TYE 665; blunt. (Mobility shift assays separate free from complexed probe on a gel.)

Series [3] deals with T5, BATF3;JUN (human;human, UniProt Q9NR55;P05412 ;, |). Put plainly: EMSA-FRET; heterodimer; comparable to CRE-L; EMSA-FRET: 50 nM each labeled protein, 10 nM DNA, 50 mM potassium phosphate pH 7.4, 150 mM KCl, 0.1% BSA, 0.1% Tween-20, 5 ng/ul poly(dI-dC), 0.5 mM TCEP; 37 C. To be noted: protein: recombinant;recombinant; fluorescein or TAMRA; chain copies: 2;2; label: 5' TYE 665; blunt.
T5 sequence (P05412 243-316, one chain of several): as the sequence (P05412 243-316) above

The target in series [4] is T6, ATF2;BATF3 (human;human, UniProt P15336;Q9NR55 ;, |).
T6 sequence 1: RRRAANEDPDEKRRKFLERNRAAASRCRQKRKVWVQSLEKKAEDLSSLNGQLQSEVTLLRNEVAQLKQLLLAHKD
T6 sequence 2: T2 sequence
Described as above. To be noted: protein: recombinant;recombinant; fluorescein or TAMRA; copies: 1;1; label: 5' TYE 665; blunt.

A further series has as its target ATF3;CEBPA (human;human, UniProt P18847;P49715 ;, |). The series can be described thus: EMSA-FRET; heterodimer; EMSA-FRET: 50 nM each labeled protein, 10 nM DNA, 50 mM potassium phosphate pH 7.4, 150 mM KCl, 0.1% BSA, 0.1% Tween-20, 5 ng/ul poly(dI-dC), 0.5 mM TCEP; 37 C. The conditions noted are these: protein: recombinant;recombinant; fluorescein or TAMRA; chain copies: 2;2; label: 5' TYE 665; blunt.

The target in the next series is T7, CEBPG (human, UniProt P53567).
T7 sequence: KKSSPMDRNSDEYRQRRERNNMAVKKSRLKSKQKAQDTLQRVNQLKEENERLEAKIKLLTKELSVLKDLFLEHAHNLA
Put plainly: EMSA-FRET; homodimer; EMSA-FRET: 50 nM each labeled protein, 10 nM DNA, 50 mM potassium phosphate pH 7.4, 150 mM KCl, 0.1% BSA, 0.1% Tween-20, 5 ng/ul poly(dI-dC), 0.5 mM TCEP; 37 C. The conditions noted are these: protein: recombinant; fluorescein or TAMRA; chain copies: 2; label: 5' TYE 665; blunt.

The target in the next series is T8, ATF3;CEBPG (human;human, UniProt P18847;P53567 ;, |).
T8 sequence 1: T1 sequence
T8 sequence 2: T7 sequence
The series can be described thus: EMSA-FRET; heterodimer; EMSA-FRET: 50 nM each labeled protein, 10 nM DNA, 50 mM potassium phosphate pH 7.4, 150 mM KCl, 0.1% BSA, 0.1% Tween-20, 5 ng/ul poly(dI-dC), 0.5 mM TCEP; 37 C. To be noted: protein: recombinant;recombinant; fluorescein or TAMRA; chain copies: 2;2; label: 5' TYE 665; blunt.

The target in series [5] is T6, ATF2;BATF3. Put plainly: EMSA-FRET; heterodimer; comparable to CRE; EMSA-FRET: 50 nM each labeled protein, 10 nM DNA, 50 mM potassium phosphate pH 7.4, 150 mM KCl, 0.1% BSA, 0.1% Tween-20, 5 ng/ul poly(dI-dC), 0.5 mM TCEP; 37 C. To be noted: protein: recombinant;recombinant; fluorescein or TAMRA; copies: 1;1; label: 5' TYE 665; blunt.
For series [6], the target named is T5, BATF3;JUN. Put plainly: EMSA-FRET; heterodimer; EMSA-FRET: 50 nM each labeled protein, 10 nM DNA, 50 mM potassium phosphate pH 7.4, 150 mM KCl, 0.1% BSA, 0.1% Tween-20, 5 ng/ul poly(dI-dC), 0.5 mM TCEP; 37 C. To be noted: protein: recombinant;recombinant; fluorescein or TAMRA; chain copies: 2;2; label: 5' TYE 665; blunt.
Series [7] addresses T4, XBP1. The series can be described thus: EMSA-FRET; homodimer; comparable to CRE; EMSA-FRET: 50 nM each labeled protein, 10 nM DNA, 50 mM potassium phosphate pH 7.4, 150 mM KCl, 0.1% BSA, 0.1% Tween-20, 5 ng/ul poly(dI-dC), 0.5 mM TCEP; 37 C. The conditions noted are these: protein: recombinant; fluorescein or TAMRA; chain copies: 2; label: 5' TYE 665; blunt.
Series [8] deals with T3, JUN. The series can be described thus: EMSA-FRET; homodimer; no detectable affinity; EMSA-FRET: 50 nM each labeled protein, 10 nM DNA, 50 mM potassium phosphate pH 7.4, 150 mM KCl, 0.1% BSA, 0.1% Tween-20, 5 ng/ul poly(dI-dC), 0.5 mM TCEP; 37 C. The conditions noted are these: protein: recombinant; fluorescein or TAMRA; chain copies: 2; label: 5' TYE 665; blunt.

Sequence of ATF3;CEBPA (P49715 273-345, one chain of several): as the sequence (P49715 273-345, one chain of several) above

B1: CREA/CAAT (CRE-L-CAAT) (dsDNA)
DNA 1: GAGTCCGCCACGCAATCCGTAG
DNA 2: CTACGGATTGCGTGGCGGACTC
On to B1, for which, in the series with BATF3;CEBPA, the binding result is reported as “binds”.

B2: CRE (dsDNA)
DNA 1: GAGTCCATGACGTCATCCGTAG
DNA 2: CTACGGATGACGTCATGGACTC
For B2, the binding result in the series with ATF3, with BATF3, in the series with JUN [1], in the series with XBP1 [2], with BATF3;JUN [3] and with ATF2;BATF3 [4] was “binds” each time.

B3: AP1/CAAT (TRE-CAAT) (dsDNA)
DNA 1: GAGTCCATGAGCAATCCGTAG
DNA 2: CTACGGATTGCTCATGGACTC
Take B3: the binding result with ATF3;CEBPA is “binds”.

B4: CAAT (dsDNA)
DNA 1: GAGTCCATTGCGCAATCCGTAG
DNA 2: CTACGGATTGCGCAATGGACTC
In the case of B4, the binding result in the series with CEBPG is on record as “binds”.

B5: CRE/CAAT (dsDNA)
DNA 1: GAGTCCATGACGCAATCCGTAG
DNA 2: CTACGGATTGCGTCATGGACTC
On to B5, for which, in the series with ATF3;CEBPG, the binding result is “binds”.

B6: CRE-L (dsDNA)
DNA 1: GAGTCCATGACGTGGCCCGTAG
DNA 2: CTACGGGCCACGTCATGGACTC
On to B6, for which the binding result is given as “binds” with ATF2;BATF3 [5]; “no binding” with BATF3; “binds” with BATF3;JUN [6]; “binds” in the series with XBP1 [7]; “no binding” with JUN [8].
